Assay results from patent publication KR20200059381A.

Assays:
[1] = molecular target: 구제역 바이러스 혈청형 O 배양액(cal1~cal4) (Foot-and-mouth disease virus serotype O); experiment: sandwich ELISA, cal1, 1E58 coat 8 ug/ml, 1E58-HRP 0.8 ug/ml, 450 nm
[2] = molecular target: 구제역 바이러스 혈청형 O 배양액(cal1~cal4) (Foot-and-mouth disease virus serotype O); experiment: sandwich ELISA, cal3, 1E58 coat 1 ug/ml, 1E58-HRP 0.4 ug/ml, 450 nm
[3] = molecular target: 구제역 바이러스 혈청형 O 배양액(cal1~cal4) (Foot-and-mouth disease virus serotype O); experiment: sandwich ELISA, cal3, 1E58 coat 8 ug/ml, 1E58-HRP 0.4 ug/ml, 450 nm

B1: 단클론항체 1E58 (antibody, V domains shown)
VH: EFQLQQSRPELAKPGASVKISCKTSGHTFTTYTMHWVKQSHVKSLEWIGCFNPNNGGATYNQKFKGKATLTMDKSSNTAYVEVRSLTSDDSAVYYCAYGNYVNFDYWGQGTTLTVSS
VL: DIVLTQSPASLAVSLGQRATISYRASKSVSTSGYSYMHWNQQKPGQPPRLLIYLVSNLESGVPARFSGSGSGTDFTLNIHPVEEEDAATYYCQHIRELTRSEGGPSWKN
- O.D [1]: 4 O.D
- O.D [2]: 0.77 O.D
- O.D [3]: 0.96 O.D
